The target of assay [1] is Human CD1d (recombinant; Human B2M-CD1d ECD-His6) (human). The assay is described as follows: ELISA, plates coated with recombinant CD1d, titrated Ab571. Background: In an ELISA, binding on a coated surface is turned into a signal by an enzyme label.
Assay [2] concerns the target T1, cynomolgus CD1a-β2M recombinant protein (Cyno B2M-CD1a ECD-Avi-His6) (cynomolgus monkey).
T1 construct: also called cyno CD1a; cynomolgus monkey CD1a
T1 chain: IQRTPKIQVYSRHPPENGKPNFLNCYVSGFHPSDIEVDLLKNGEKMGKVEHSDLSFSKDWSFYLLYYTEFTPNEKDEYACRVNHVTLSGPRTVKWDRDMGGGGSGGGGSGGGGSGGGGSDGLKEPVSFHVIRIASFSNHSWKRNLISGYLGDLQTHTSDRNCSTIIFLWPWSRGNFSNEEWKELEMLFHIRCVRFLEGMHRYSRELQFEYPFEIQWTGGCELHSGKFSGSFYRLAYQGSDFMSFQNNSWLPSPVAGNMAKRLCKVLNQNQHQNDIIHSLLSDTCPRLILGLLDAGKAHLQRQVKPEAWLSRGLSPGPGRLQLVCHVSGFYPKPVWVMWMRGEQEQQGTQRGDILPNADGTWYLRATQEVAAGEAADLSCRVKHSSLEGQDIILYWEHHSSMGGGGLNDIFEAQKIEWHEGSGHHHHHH
Put plainly: SPR (Biacore 8K, 37 °C), Ab571 captured by anti-human Fc, cyno CD1a as analyte, 1:1 Langmuir fit; mean ± SD, n = 6. On the technique in general: In SPR one partner is held on a chip, and binding of the other changes the refractive index at the surface.

Assay [3] concerns the target Human CD1c (recombinant; Human B2M-CD1c ECD-His6) (human). Put plainly: ELISA, plates coated with recombinant CD1c, titrated Ab571.
For assay [4], the target named is T2, human single-chain CD1a-β2M recombinant protein (Human B2M-CD1a ECD-Avi-His6) (human).
T2 construct: Biotinylated in the HTRF, phage selection and Gyrolab assays; also called human CD1a; CD1a protein
The assay is described as follows: ELISA, plates coated with recombinant human CD1a, titrated Ab571.

For assay [5], the target named is T2, human single-chain CD1a-β2M recombinant …. The assay is described as follows: SPR (Biacore 8K, 37 °C), Ab571 captured by anti-human Fc, human CD1a as analyte, 1:1 Langmuir fit; mean ± SD, n = 6.
Assay [6] has the same target. The assay is described as follows: SPR (Biacore), IgG; antigen taken as human CD1a.
Assay [7] has as its target T1, cynomolgus CD1a-β2M recombinant protein …. The assay is described as follows: Surface Plasmon Resonance (summary table; same experiment as Table 7).
The target of assay [8] is T2, human single-chain CD1a-β2M recombinant …. Described as above.
The target of assay [9] is T3, human CD1a expressed on cells (human, UniProt P06126 17-327).
T3 construct: Full-length human CD1a on the cell surface (transfected CHO, C1R, K562 cells, or endogenous on primary dendritic cells); associated β2-microglobulin of the cell not described; also called CHO/human CD1a; C1R-huCD1a
T3 sequence (P06126 17-327): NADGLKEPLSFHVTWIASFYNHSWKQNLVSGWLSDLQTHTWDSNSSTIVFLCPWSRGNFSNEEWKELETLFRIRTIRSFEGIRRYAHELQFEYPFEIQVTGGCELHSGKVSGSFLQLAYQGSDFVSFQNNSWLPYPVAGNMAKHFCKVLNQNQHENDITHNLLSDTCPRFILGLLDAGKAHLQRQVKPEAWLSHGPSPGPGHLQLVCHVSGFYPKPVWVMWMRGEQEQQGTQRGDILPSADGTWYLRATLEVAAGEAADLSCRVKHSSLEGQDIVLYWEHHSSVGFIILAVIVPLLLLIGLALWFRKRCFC
Put plainly: flow cytometry, AF-647-conjugated Ab571 on primary human monocyte-derived dendritic cells; average. In general terms: A flow cytometer gives signals particle by particle.

Assay [10] has as its target T1, cynomolgus CD1a-β2M recombinant protein …. Put plainly: SPR (Biacore 8K, 37 °C), Ab571 captured by anti-human Fc, cyno CD1a as analyte, 1:1 Langmuir fit.
Assay [11] deals with Human CD1b (recombinant; Human B2M-CD1b ECD-His6) (human). Put plainly: ELISA, plates coated with recombinant CD1b, titrated Ab571.
Human CD1b (recombinant; Human B2M-CD1b ECD-His6) (human), sequence (chain, as listed by the source limits assumed): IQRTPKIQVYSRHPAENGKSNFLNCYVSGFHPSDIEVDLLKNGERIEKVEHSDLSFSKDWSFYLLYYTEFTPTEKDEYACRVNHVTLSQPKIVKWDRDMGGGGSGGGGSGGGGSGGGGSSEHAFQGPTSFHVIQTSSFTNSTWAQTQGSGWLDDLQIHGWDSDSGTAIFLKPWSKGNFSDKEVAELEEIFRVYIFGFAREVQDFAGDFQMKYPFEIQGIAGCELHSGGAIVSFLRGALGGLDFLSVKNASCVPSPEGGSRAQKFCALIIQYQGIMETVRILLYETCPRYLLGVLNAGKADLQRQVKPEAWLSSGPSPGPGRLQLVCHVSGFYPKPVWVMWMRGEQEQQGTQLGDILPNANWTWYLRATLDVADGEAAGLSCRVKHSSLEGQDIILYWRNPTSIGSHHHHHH
Assay [12] concerns the target T3, human CD1a expressed on cells. Put plainly: cell-based or functional assay.
For assay [13] the target is unchanged. Put plainly: cell-based or functional assay. The source holds these as a separate data set.
The next assay concerns the target T4, Human C1q (human, UniProt P02745 23-245; P02746 28-253; P02747 29-245).
T4 construct: Source and form of C1q not described; also called Clq
Put plainly: in vitro human C1q binding assay.

In assay [14] the target is T2, human single-chain CD1a-β2M recombinant …. The assay is described as follows: SPR (Biacore 8K, 37 °C), Ab571 captured by anti-human Fc, human CD1a as analyte, 1:1 Langmuir fit.

T4 sequence (P02745 23-245 limits assumed, chain 1 of 3): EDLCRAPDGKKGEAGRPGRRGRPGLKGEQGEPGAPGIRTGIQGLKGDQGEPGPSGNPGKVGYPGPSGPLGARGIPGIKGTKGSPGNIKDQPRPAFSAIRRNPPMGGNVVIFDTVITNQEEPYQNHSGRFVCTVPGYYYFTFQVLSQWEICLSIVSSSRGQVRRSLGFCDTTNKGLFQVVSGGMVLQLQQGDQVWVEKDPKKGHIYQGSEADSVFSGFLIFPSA
T4 sequence (P02746 28-253 limits assumed, chain 2 of 3): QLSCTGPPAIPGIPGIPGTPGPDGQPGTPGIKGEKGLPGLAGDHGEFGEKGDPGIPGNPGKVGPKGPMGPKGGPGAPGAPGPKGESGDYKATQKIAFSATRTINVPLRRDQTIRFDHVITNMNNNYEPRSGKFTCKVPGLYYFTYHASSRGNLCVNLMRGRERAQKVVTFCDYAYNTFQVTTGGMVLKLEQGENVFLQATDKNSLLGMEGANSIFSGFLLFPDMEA
T4 sequence (P02747 29-245 limits assumed, chain 3 of 3): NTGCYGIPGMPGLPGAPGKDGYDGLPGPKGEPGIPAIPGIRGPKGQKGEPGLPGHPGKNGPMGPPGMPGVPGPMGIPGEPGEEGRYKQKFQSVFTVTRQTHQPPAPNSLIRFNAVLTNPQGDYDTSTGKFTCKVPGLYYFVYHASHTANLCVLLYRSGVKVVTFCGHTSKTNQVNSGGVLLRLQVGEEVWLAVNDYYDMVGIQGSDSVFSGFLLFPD
Human CD1c (recombinant; Human B2M-CD1c ECD-His6) (human), sequence (chain, as listed by the source limits assumed): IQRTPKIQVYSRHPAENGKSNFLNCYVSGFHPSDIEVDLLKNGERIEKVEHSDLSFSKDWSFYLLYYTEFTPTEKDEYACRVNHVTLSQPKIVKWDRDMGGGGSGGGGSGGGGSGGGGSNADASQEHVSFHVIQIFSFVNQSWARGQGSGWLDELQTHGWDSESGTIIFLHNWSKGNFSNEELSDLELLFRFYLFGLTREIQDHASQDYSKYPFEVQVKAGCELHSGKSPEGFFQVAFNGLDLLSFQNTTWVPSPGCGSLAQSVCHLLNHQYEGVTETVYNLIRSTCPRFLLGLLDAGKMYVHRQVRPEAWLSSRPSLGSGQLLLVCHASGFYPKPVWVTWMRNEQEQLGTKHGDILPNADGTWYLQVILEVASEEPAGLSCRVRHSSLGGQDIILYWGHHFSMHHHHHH
Human CD1d (recombinant; Human B2M-CD1d ECD-His6) (human), sequence (chain, as listed by the source limits assumed): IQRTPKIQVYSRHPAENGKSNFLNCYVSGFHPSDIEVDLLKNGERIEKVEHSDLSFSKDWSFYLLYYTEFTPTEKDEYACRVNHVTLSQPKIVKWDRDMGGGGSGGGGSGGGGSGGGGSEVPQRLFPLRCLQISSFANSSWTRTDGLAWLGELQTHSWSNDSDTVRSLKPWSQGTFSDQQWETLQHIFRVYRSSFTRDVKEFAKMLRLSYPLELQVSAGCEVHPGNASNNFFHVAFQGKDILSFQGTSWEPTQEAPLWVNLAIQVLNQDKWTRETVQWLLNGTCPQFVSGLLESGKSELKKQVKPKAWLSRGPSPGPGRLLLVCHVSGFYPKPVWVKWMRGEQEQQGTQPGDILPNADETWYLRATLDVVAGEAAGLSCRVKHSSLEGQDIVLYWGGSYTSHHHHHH

B1: Ab571 (antibody, human IgG1, kappa)
heavy: EVQLVESGGGLVQPGGSLRLSCAASGFTFTDHYMTWVRQAPGKGLEWVAFIRNKAGGYTTESNPAVKGRFTISRDNAKNSLYLQMNSLRAEDTAVYYCARETTGIPTGWFAYWGQGTLVTVSSASTKGPSVFPLAPSSKSTSGGTAALGCLVKDYFPEPVTVSWNSGALTSGVHTFPAVLQSSGLYSLSSVVTVPSSSLGTQTYICNVNHKPSNTKVDKKVEPKSCDKTHTCPPCPAPEAAGAPSVFLFPPKPKDTLMISRTPEVTCVVVDVSHEDPEVKFNWYVDGVEVHNAKTKPREEQYNSTYRVVSVLTVLHQDWLNGKEYKCKVSNKALPAPIEKTISKAKGQPREPQVYTLPPSREEMTKNQVSLTCLVKGFYPSDIAVEWESNGQPENNYKTTPPVLDSDGSFFLYSKLTVDKSRWQQGNVFSCSVMHEALHNHYTQKSLSLSPGK
light: DIQMTQSPSSLSASVGDRVTITCLASEDIYFDLAWYQQKPGKAPKLLIYGGDRLKEGVPSRFSGSGSGTDYTLTISSLQPEDFATYYCQQSYSYPYTFGQGTKLEIKRTVAAPSVFIFPPSDEQLKSGTASVVCLLNNFYPREAKVQWKVDNALQSGNSQESVTEQDSKDSTYSLSSTLTLSKADYEKHKVYACEVTHQGLSSPVTKSFNRGEC
notes: Lead optimized variant of Ab138; human IgG1 effector null / kappa; HC with or without terminal lysine; Used AF-647- or FITC-conjugated in the dendritic cell flow cytometry assays; also called FITC-Ab571; AF-647-conjugated Ab571
As to B1, the binding result was “no binding” in assay [1], “no binding” in assay [3], “no binding” in assay [11] and “no binding (tested: Up to 30 µg/mL (C1q))” with Human C1q. For the same molecule, the Kd was found to be 0.0604 nM in assay [2]; 0.181 nM in assay [5]; 0.17 nM in assay [6]; 0.06 nM in [7]; 0.181 nM in assay [8]. Also, the EC50 in assay [4] came to 0.00652 nM; in assay [9] it was 7.83 nM. Also, the koff in [10] stood at 9.8e-05 s⁻¹; in [14], 0.000228 s⁻¹. For the same molecule, the values for the kon in [10] and in assay [14] were 1.64e+06 M⁻¹ s⁻¹ and 1.26e+06 M⁻¹ s⁻¹, respectively. In addition, the “Inhibition of CD69 expression, IC50” value in assay [12] is 1.11 nM. Moreover, in assay [13], the “Human Jurkat T cell Activation: IC50 CD69 Expression” value amounted to 0.894 nM. Also, in assay [13], the “Human Jurkat T cell Activation: IC50 IL-2” value is 0.268 nM.

One may read the Kd as a measure of binding affinity in units of concentration. What is called EC50 is the concentration needed to bring the measured effect to its halfway point. One may read the koff as the first-order rate constant of dissociation. What is called kon is the second-order rate constant of association.
